The source of these data is article PMC8307404, “Crystal Structure-Guided Design of Bisubstrate Inhibitors and Photoluminescent Probes for Protein Kinases of the PIM Family” (Molecules, 2021).

Square brackets hold non-standard residues; d marks the D form. Peptide text beside a SMILES is read from it. * marks the point of attachment. X3 = O=C(CCCCCNCc1nc2c(sc3cc(Br)cnc32)c(=O)[nH]1)*

Test in all cases: Kinase profiling (radiometric filter-binding)
Type in all cases: biochemical

The target in one series is T1, EPH-B3 (Homo sapiens, UniProt P54753).
T1 sequence (P54753 34-998): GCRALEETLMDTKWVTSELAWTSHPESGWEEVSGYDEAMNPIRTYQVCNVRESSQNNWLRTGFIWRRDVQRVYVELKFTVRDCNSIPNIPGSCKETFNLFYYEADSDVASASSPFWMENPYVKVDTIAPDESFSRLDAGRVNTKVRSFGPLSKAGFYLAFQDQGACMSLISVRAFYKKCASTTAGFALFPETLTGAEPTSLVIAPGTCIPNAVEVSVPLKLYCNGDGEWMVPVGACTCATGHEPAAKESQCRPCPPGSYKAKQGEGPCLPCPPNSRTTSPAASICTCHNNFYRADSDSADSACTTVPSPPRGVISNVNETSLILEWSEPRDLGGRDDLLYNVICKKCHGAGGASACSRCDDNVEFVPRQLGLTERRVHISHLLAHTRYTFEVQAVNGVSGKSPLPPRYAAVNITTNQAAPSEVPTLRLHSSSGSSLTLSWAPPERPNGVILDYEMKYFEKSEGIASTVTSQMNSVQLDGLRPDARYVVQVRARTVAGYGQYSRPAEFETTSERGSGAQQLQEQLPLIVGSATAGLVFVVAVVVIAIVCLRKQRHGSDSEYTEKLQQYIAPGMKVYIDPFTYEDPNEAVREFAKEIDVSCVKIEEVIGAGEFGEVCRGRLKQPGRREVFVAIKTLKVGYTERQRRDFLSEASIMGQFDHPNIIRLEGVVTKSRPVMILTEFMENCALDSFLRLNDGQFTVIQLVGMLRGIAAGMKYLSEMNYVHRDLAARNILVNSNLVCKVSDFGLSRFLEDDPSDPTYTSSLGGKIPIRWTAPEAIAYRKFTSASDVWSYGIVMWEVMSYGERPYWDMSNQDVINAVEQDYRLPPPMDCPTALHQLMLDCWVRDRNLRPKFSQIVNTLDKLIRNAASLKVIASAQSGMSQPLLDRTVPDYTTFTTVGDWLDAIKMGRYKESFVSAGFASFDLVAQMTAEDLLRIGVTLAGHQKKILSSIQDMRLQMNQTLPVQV
The settings on record: EPH-B3, 1 µM inhibitor; read-out: Residual activity, %. A digest of the protocol:
(§1)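 Single-point selectivity screen at 1 µM total inhibitor concentration across a panel of 139 or 140 human PKs, using radioactive filter-binding detection with ATP near or below KM; data are % activity remaining versus untreated control.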

Another series has as its target YES1 (Homo sapiens, UniProt P07947). The settings on record: YES1, 1 µM inhibitor; read-out: Residual activity, %. In short, it runs like this: as §1
Another series has as its target PIM3 (Homo sapiens, UniProt Q86V86). The settings on record: PIM3, 1 µM inhibitor; read-out: Residual activity, %. In short, it runs like this:
as §1

For another series, the target named is MINK1 (Homo sapiens, UniProt Q8N4C8). The settings on record: MINK1, 1 µM inhibitor; read-out: Residual activity, %. In short, it runs like this:
as §1

The next series addresses ROCK 2 (Homo sapiens, UniProt O75116). The settings on record: ROCK 2, 1 µM inhibitor; read-out: Residual activity, %. In short, it runs like this: as §1
In the next series the target is RSK2 (Homo sapiens, UniProt P51812). As to conditions: RSK2, 1 µM inhibitor; read-out: Residual activity, %. A digest of the protocol: as §1
The target of the next series is MSK1 (Homo sapiens, UniProt O75582). As to conditions: MSK1, 1 µM inhibitor; read-out: Residual activity, %. In short, it runs like this:
as §1

Another series deals with T2, EPH-B2 (Homo sapiens, UniProt P29323).
T2 sequence (P29323 19-1055): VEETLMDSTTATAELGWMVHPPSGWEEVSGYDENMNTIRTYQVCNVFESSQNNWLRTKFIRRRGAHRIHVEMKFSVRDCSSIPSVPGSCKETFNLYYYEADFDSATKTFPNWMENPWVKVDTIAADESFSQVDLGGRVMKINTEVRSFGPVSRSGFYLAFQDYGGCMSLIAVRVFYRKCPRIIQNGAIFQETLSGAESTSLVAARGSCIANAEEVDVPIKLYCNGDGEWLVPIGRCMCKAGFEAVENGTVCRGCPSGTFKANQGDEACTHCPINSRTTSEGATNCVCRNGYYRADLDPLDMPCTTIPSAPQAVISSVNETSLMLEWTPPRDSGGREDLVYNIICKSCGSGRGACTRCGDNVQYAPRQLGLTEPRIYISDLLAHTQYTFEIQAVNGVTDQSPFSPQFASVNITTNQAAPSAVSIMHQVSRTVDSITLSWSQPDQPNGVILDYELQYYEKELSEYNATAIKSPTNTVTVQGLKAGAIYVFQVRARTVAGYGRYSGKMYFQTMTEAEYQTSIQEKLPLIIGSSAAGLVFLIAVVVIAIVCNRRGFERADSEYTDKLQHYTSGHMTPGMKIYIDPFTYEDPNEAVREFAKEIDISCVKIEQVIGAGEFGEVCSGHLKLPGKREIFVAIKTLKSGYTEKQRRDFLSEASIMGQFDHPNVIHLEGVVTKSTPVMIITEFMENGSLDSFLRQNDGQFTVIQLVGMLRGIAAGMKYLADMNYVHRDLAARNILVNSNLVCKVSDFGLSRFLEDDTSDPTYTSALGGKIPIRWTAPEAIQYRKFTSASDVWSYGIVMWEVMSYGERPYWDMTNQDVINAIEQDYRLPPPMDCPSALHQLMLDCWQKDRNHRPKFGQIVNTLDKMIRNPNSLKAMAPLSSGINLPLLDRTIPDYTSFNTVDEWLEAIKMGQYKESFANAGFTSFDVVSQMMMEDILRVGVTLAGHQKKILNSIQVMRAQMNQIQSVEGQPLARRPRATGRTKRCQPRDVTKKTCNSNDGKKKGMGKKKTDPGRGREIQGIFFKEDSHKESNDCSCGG
As to conditions: EPH-B2, 1 µM inhibitor; read-out: Residual activity, %. A digest of the protocol:
as §1

Another series deals with CLK2 (Homo sapiens, UniProt P49760). The settings on record: CLK2, 1 µM inhibitor; read-out: Residual activity, %. A digest of the protocol:
as §1

For the next series, the target named is CDK9-Cyclin T1 (Homo sapiens, UniProt P50750). The settings on record: CDK9-Cyclin T1, 1 µM inhibitor; read-out: Residual activity, %. In short, it runs like this: as §1
Sequence of CDK9-Cyclin T1 (P50750 whole entry): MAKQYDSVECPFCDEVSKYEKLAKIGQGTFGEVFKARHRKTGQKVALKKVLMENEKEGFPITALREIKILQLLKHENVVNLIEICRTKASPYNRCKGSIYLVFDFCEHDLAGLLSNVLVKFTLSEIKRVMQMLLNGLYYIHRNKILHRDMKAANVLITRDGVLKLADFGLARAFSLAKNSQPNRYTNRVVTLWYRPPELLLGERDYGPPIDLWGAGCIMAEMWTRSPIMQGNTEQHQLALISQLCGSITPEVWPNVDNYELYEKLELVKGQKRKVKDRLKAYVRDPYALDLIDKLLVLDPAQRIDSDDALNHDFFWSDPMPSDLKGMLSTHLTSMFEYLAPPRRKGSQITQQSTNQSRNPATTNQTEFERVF
Sequence of CDK9-Cyclin T1 (O60563 whole entry partner): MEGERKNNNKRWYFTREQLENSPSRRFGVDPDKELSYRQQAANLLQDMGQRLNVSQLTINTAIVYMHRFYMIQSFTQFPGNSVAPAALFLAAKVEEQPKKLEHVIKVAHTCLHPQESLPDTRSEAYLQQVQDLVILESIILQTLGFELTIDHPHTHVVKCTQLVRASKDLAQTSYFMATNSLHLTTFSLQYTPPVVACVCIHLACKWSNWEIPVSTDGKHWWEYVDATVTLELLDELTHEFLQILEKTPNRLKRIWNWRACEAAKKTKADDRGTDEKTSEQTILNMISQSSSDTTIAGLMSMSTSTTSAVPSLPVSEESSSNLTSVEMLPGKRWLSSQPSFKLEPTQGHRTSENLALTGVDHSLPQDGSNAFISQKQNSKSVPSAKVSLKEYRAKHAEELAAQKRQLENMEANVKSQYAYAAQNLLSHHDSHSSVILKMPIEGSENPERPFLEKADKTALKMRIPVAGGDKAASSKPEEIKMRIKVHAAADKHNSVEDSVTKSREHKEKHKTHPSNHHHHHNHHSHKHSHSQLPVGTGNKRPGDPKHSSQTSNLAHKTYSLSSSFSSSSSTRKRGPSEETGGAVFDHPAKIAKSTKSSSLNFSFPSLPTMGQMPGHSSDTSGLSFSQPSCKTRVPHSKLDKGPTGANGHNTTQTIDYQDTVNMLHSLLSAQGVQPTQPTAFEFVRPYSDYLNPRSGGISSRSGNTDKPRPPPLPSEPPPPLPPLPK

Sequence of MINK1 (Q8N4C8 whole entry): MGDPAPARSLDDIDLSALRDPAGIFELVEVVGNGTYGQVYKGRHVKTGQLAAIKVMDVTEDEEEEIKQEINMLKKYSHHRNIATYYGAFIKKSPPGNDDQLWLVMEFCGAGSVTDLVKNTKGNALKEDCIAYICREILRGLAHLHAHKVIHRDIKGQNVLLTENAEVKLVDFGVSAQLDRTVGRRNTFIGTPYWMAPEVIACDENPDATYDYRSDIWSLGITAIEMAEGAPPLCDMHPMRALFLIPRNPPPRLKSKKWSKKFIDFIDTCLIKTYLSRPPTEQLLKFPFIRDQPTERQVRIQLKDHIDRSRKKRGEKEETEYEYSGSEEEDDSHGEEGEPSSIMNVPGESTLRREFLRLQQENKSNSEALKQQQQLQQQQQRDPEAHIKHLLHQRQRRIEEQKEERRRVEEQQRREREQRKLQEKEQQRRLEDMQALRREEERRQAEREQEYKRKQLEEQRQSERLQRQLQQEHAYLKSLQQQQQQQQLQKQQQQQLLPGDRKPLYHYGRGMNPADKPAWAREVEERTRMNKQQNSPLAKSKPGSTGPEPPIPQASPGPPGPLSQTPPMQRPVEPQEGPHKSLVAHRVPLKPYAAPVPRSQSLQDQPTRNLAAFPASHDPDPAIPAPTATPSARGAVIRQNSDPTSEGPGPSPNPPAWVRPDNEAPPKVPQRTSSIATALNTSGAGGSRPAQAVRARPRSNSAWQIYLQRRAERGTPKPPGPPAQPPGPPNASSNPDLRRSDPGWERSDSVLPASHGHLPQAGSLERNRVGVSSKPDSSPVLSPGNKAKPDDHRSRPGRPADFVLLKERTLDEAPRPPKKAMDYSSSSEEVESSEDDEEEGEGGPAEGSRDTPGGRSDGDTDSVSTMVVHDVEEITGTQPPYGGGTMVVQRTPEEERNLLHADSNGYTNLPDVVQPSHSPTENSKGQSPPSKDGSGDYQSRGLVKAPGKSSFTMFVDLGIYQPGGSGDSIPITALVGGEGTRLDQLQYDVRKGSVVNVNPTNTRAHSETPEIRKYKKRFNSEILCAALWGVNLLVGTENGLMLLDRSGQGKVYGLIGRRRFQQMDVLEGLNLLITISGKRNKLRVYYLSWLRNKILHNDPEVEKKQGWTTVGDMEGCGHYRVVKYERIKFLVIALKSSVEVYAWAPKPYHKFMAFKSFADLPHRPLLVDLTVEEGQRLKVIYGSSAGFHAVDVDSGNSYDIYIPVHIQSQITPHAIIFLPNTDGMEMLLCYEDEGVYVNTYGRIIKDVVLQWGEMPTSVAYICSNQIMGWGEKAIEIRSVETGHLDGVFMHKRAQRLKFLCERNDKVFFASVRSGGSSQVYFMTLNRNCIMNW
Sequence of YES1 (P07947 whole entry): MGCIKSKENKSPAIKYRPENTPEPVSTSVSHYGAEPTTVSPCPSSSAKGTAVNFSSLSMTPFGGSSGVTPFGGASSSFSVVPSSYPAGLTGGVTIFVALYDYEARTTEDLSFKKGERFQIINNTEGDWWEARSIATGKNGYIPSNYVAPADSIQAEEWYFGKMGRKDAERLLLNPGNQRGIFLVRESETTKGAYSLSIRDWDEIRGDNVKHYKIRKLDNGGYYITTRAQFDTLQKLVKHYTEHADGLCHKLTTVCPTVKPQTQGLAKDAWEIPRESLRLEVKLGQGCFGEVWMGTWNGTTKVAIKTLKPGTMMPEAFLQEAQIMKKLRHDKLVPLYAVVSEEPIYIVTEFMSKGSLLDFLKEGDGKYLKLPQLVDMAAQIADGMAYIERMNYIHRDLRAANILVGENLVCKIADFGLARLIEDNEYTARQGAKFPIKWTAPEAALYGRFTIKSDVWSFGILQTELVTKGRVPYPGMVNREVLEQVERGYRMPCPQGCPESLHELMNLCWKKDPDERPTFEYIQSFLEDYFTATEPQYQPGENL
Sequence of ROCK 2 (O75116 whole entry): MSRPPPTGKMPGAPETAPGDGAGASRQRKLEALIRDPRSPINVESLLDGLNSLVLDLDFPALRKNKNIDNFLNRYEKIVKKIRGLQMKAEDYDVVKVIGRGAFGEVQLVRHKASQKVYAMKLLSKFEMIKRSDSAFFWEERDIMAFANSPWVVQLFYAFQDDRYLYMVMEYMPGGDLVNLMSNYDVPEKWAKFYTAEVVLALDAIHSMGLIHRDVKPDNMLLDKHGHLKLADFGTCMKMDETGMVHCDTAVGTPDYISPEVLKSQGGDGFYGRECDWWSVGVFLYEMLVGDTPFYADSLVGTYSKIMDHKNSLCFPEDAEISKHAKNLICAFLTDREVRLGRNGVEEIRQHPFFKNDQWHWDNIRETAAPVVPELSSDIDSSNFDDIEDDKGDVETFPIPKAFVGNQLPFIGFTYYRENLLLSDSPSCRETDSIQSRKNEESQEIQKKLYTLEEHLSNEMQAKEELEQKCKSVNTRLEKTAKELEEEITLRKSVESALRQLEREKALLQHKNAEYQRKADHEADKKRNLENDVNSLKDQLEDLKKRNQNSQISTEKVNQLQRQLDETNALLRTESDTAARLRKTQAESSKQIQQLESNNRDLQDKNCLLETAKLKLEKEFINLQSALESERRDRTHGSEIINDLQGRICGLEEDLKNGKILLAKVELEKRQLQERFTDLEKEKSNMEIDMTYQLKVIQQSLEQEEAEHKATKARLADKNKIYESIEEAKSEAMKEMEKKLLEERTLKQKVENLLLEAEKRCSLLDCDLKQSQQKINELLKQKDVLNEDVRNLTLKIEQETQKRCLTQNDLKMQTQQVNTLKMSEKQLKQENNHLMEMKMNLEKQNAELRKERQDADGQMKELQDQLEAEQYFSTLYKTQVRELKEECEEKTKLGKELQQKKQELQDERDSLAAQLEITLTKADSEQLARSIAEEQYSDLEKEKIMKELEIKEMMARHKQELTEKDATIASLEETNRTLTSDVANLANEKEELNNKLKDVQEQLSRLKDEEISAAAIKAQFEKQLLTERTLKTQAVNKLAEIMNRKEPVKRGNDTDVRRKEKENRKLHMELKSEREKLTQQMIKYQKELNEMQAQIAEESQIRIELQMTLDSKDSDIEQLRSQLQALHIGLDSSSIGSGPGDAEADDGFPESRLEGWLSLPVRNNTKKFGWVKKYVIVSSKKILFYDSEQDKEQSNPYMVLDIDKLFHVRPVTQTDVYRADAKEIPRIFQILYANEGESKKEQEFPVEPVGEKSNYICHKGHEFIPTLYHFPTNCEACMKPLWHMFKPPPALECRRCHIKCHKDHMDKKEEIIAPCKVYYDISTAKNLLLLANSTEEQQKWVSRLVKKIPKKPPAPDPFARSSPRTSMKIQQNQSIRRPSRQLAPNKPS

For `N=C(N)NCCC[C@@H](NC(=O)CCCCCNCc1nc2c(sc3cc(Br)cnc32)c(=O)[nH]1)C(=O)N[C@H](CCCNC(=N)N)C(=O)N[C@H](CCCNC(=N)N)C(=O)N[C@H](CCCNC(=N)N)C(=O)N[C@H](CCCNC(=N)N)C(=O)N[C@H](CCCNC(=N)N)C(=O)N[C@H](CCCCN)C(N)=O` [ARC-3126, BPTP-Ahx-(D-Arg)6-D-Lys-NH2] (X3-[dR][dR][dR][dR][dR][dR][dK]-NH2), the remaining activity at 1 µM in the series with EPH-B3 was 94 ± 10%; in the series with YES1 it was 98 ± 12%; in the series with PIM3, 13%; with MINK1, 104 ± 16%; in the series with ROCK 2 it was 65 ± 17%; with RSK2, 86 ± 15%. Moreover, the remaining activity at 1 µM with MSK1 turned out to be 29 ± 1%; with EPH-B2, 107 ± 4%; in the series with CLK2, 57 ± 15%; with CDK9-Cyclin T1, 104 ± 3%.

Regarding `N=C(N)NCCC[C@@H](NC(=O)CNC(=O)[C@@H](CCCNC(=N)N)NC(=O)[C@@H](CCCNC(=N)N)NC(=O)CCCCCCCNCc1nc2c(sc3ccc(Br)cc32)c(=O)[nH]1)C(=O)N[C@H](CCCCN)C(N)=O` [Compound 2, BBTP-Aoc-(D-Arg)2-Gly-D-Arg-D-Lys-NH2], the remaining activity at 1 µM turned out to be 106 ± 2% in the series with EPH-B3; 104 ± 12% with YES1; 4 ± 1% with PIM3; 106 ± 13% with MINK1; 61 ± 5% with ROCK 2; 92 ± 10% with RSK2. The remaining activity at 1 µM with MSK1 was found to be 53 ± 4%; with EPH-B2 it was 100 ± 5%; with CLK2 it was 24%; with CDK9-Cyclin T1, 101 ± 20%.

For `N=C(N)NCCC[C@@H](NC(=O)CNC(=O)[C@@H](CCCNC(=N)N)NC(=O)[C@@H](CCCNC(=N)N)NC(=O)Cn1cc(CNCc2nc3c(sc4ccc(Br)cc43)c(=O)[nH]2)nn1)C(=O)N[C@H](CCCCN)C(N)=O` [Compound 3, BBTP-Amt-(D-Arg)2-Gly-D-Arg-D-Lys-NH2], the remaining activity at 1 µM with EPH-B3 was 79 ± 3%; with YES1, 124 ± 1%; with PIM3, 6%; with MINK1, 133 ± 14%; with ROCK 2, 62 ± 5%; with RSK2, 106 ± 11%. Further, the remaining activity at 1 µM worked out at 90 ± 2% with MSK1, 96 ± 14% with EPH-B2, 30 ± 1% with CLK2 and 90 ± 18% with CDK9-Cyclin T1.

As to `N=C(N)NCCC[C@@H](NC(=O)CCCCCNC(=O)Cn1cnc2c(I)c(I)c(I)c(I)c21)C(=O)N[C@H](CCCNC(=N)N)C(=O)N[C@H](CCCNC(=N)N)C(=O)N[C@H](CCCNC(=N)N)C(=O)N[C@H](CCCNC(=N)N)C(=O)N[C@H](CCCNC(=N)N)C(=O)N[C@H](CCCCN)C(N)=O` [ARC-3125, TIBI-CH2-C(=O)-Ahx-(D-Arg)6-D-Lys-NH2], the remaining activity at 1 µM with EPH-B3 came out at 104 ± 3%; with YES1 it was 104 ± 8%; in the series with PIM3, 7 ± 1%; in the series with MINK1, 86 ± 1%; in the series with ROCK 2 it was 5 ± 1%; with RSK2, 17 ± 1%. Also, the remaining activity at 1 µM with MSK1 was 6 ± 8%; with EPH-B2, 102 ± 8%; in the series with CLK2 it was -1 ± 5%; with CDK9-Cyclin T1, 55 ± 1%.

`N=C(N)NCCC[C@@H](NC(=O)CNC(=O)[C@@H](CCCNC(=N)N)NC(=O)[C@@H](CCCNC(=N)N)NC(=O)CCCCCCCNCc1nc2c(sc3cc(Br)cnc32)c(=O)[nH]1)C(=O)N[C@H](CCCCN)C(N)=O` [Compound 1, BPTP-Aoc-(D-Arg)2-Gly-D-Arg-D-Lys-NH2]: the remaining activity at 1 µM with EPH-B3 was determined as 107 ± 26%; with YES1 it was 110%; in the series with PIM3, 17%; in the series with MINK1, 129 ± 2%; with ROCK 2, 114 ± 17%; with RSK2, 109 ± 11%. In addition, the remaining activity at 1 µM with MSK1 amounted to 106 ± 13%; with EPH-B2 it was 95 ± 16%; with CLK2, 97%; with CDK9-Cyclin T1 it was 110 ± 10%.
